Each substance was assayed against Taxol-stabilized microtubules polymerised from purified porcine brain tubulin (porcine) (UniProt P02550) (assay: co-sedimentation; tubulin co-sedimentation: taxol-stabilized MTs (varied, α/β-tubulin heterodimer molarity) with 1 µM purified N-clamp, 0.25 mg/ml BSA, BRB80-MT buffer (80 mM PIPES, 1 mM MgCl2, 1 mM EGTA, 12.5% glycerol, pH 6.8), 20 min at room temperature, 200,000 g 10 min 27 °C; SDS-PAGE densitometry of pellet; apparent Kd from a quadratic fit).
A. thaliana augmin N-clamp with AUG8 lacking its N-terminal extension, sequence (O48767 whole entry): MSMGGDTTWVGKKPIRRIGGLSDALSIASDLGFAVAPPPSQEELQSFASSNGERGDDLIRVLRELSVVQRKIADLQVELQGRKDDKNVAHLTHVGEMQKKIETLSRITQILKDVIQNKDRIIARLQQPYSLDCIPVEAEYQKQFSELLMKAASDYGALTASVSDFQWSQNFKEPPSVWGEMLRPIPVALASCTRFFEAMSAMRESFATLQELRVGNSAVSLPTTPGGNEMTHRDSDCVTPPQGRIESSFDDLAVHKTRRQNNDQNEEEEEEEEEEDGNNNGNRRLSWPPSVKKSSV
A. thaliana augmin N-clamp with AUG8 lacking its N-terminal extension, sequence (Q94BP7 whole entry): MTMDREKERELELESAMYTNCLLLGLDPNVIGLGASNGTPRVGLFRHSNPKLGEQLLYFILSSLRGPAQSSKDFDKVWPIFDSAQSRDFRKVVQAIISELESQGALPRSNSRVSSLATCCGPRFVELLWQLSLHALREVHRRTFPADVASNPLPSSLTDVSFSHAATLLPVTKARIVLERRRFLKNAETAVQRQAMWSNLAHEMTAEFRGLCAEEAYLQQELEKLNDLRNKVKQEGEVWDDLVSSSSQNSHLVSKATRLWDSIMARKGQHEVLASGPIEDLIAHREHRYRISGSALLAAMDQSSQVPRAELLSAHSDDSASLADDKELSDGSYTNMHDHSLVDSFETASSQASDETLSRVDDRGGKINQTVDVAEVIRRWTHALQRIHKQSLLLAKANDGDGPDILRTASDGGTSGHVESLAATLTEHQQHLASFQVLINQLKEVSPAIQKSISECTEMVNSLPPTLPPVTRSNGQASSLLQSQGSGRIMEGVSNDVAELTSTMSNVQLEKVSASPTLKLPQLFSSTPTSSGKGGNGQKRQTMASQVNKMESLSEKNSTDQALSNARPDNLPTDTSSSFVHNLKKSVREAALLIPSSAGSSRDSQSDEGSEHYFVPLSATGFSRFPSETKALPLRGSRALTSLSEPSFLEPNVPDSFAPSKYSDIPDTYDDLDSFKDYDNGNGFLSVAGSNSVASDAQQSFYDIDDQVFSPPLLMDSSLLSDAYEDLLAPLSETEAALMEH
A. thaliana augmin N-clamp with AUG8 lacking its N-terminal extension, sequence (Q0WTP1 whole entry): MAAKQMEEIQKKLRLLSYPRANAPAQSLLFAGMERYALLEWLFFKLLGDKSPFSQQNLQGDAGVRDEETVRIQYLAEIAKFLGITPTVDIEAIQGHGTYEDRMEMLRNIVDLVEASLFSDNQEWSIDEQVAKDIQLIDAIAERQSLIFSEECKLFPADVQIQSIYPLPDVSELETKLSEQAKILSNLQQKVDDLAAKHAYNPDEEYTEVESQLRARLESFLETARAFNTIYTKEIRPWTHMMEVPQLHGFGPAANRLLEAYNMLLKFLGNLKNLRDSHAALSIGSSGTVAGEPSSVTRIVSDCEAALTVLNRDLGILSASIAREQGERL
A. thaliana augmin N-clamp with AUG8 lacking its N-terminal extension, sequence (Q9SUH5 whole entry): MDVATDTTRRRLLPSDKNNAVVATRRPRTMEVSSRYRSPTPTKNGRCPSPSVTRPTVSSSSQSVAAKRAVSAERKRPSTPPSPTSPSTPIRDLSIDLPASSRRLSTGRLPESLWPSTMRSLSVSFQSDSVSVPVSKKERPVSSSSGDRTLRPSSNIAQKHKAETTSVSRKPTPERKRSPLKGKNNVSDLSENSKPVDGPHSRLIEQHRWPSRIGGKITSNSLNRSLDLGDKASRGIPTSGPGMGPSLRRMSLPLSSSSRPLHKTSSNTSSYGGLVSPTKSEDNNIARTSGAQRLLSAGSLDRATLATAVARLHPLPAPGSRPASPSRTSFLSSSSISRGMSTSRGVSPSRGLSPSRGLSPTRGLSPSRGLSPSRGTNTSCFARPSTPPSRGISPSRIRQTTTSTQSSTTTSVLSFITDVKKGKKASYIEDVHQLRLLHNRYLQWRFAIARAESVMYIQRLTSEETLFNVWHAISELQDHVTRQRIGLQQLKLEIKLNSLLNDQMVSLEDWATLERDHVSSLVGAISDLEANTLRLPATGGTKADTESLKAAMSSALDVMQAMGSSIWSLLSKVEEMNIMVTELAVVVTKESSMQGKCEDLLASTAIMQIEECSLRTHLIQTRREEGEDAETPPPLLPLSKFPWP
X. laevis augmin N-clamp, wild type (HAUS2, HAUS6, HAUS7-EGFP-HIS8, HAUS8-HIS8), sequence (Q0IHJ3 whole entry, looked up, one chain of several): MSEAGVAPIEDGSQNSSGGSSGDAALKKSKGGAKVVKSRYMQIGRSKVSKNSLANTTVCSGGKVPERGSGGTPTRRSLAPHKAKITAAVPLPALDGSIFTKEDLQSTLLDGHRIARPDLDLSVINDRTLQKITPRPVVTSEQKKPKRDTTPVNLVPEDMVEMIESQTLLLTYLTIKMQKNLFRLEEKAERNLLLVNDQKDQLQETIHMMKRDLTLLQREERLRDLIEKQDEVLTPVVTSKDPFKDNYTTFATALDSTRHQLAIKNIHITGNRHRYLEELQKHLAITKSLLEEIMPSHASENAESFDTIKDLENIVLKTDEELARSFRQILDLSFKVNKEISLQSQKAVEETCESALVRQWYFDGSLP
X. laevis augmin N-clamp with HAUS8 lacking its N-terminal extension, sequence (Q0IHJ3 whole entry, looked up, one chain of several): as above
“A. thaliana augmin N-clamp with AUG8 lacking its N-terminal extension (from UniProt O48767 1-296; Q94BP7 1-741; Q0WTP1 1-329; Q9SUH5 1-644) (complex)” showed a Kd of 2100 nM.
“A. thaliana augmin N-clamp, wild type (orthologs of HAUS2, HAUS6, HAUS7-EGFP-HIS8, HAUS8-HIS8) (from UniProt O48767 1-296; Q94BP7 1-741; Q0WTP1 1-329; Q9SUH5 1-644) (complex)” gave a Kd of 10 nM.
Work on “H. sapiens augmin N-clamp with HAUS6^4A-mut (K84A, R90A, K91A, K98A) (from UniProt Q9NVX0 1-235; Q7Z4H7 1-955; Q99871 1-358; Q9BT25 1-410) (complex)” yielded a Kd of 5600 nM.
Substance “H. sapiens augmin N-clamp, wild type (HAUS2, HAUS6, HAUS7-EGFP-HIS8, HAUS8-HIS8) (from UniProt Q9NVX0 1-235; Q7Z4H7 1-955; Q99871 1-358; Q9BT25 1-410) (complex)” has a Kd of 800 nM.
Work on “X. laevis augmin N-clamp, wild type (HAUS2, HAUS6, HAUS7-EGFP-HIS8, HAUS8-HIS8) (from UniProt Q0IHJ3 1-367; Q0IHJ3 1-367; Q0IHJ3 1-367) (complex)” yielded a Kd of 600 nM.
“X. laevis augmin N-clamp with HAUS8 lacking its N-terminal extension (from UniProt Q0IHJ3 1-367; Q0IHJ3 1-367; Q0IHJ3 1-367) (complex)” showed a Kd of 2200 nM.
Work on “GST-tagged D. melanogaster augmin N-clamp (Msd1, Dgt6, Msd5-EGFP-GST, Dgt4-HIS8) (from UniProt Q9W0G7 1-138; Q9VAP2 1-654; Q9W4M8 1-188) (complex)” yielded a Kd of 40 nM.

Source: article PMC12373997
